# Test results taken from the RNAGym collection of RNA variant scans (doi:10.1073/pnas.2313332121).
# This sample holds only a part of the variants without activity.
# B1: TPR 5TU (parent)
# chain: GGAUCUUCUCGAUCUAACAAAAAAGACAAAUCUGCCACAAAGCUUGAGAGCAUCUUCGGAUGCAGAGGCGGCAGCCUUCGGUGGCGCGAUAGCGCCAACGUUCUCAACUAUGACACGCAAAACGCGUGCUCCGUUGAAUGGAGUUUAUCAUG
# Variants of: B1
# Assay: polymerase ribozyme fitness, log enrichment relative to wild type (log ratio); higher = more active; in vitro selection for triplet polymerase activity
# Summary of the method: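 One round of in vitro selection, in triplicate, was applied to PCR-built, transcribed mutant libraries of each subunit of a heterodimeric triplet polymerase ribozyme. The steps were annealing with a biotinylated primer, partner subunit and triplets, incubation frozen at −7 °C, gel excision of extended constructs, streptavidin-bead capture and RT-PCR. Fitness is the logarithm, base 2, of genotype enrichment over wild-type enrichment from inverse-variance-weighted replicate averages of Illumina-sequenced inputs and outputs, keeping genotypes with ≥10 input reads and ≥1 read per output.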
row,Variant,polymerase ribozyme fitness (log ratio)
1,G59U C76U C105A A113U C116U,≤ -4.2
2,A52U A122G,-3.43
3,G25C U31A C96G,-1.31
4,C35U A49C U53G C75G G92A A119U A120G G133U A138C,≤ -4.2
5,U55G C85U C131U U134C,1.73
6,U13C C87A,≤ -4.2
7,A17U U101A U139G A142U,-3.82
8,C35U G59A G83U A98C G128C,-3.94
9,U4G A39U A40U A91U C95G,≤ -4.2
10,A49G C96G,-1.61
11,C8G C35G C105G U144A,≤ -4.2
12,C8U G83C,-2.8
13,C8U A28U U53A G67A C69U G88C A89U A98G A138C,≤ -4.2
14,A91U G92U C132A,≤ -4.2
15,C51G G62C C85A G143A,-1.5
16,A3U C5A A30U A39U A49U C99U G124A,≤ -4.2
17,A26U C85U C105U A142C,-3.69
18,A19G A40U C57A U61A G100U G136U G141C,≤ -4.2
19,A12G U61A C76A A106G,-3.97
20,G58A G100U,-3.22
21,A12U G48A C96A,-2.05
22,U15G G48A U53A A73G C85A,≤ -4.2
23,A24G C116G,-2.85
24,A39U A60G A137U,-4.19

row,Variant,polymerase ribozyme fitness (log ratio)
1,U45G U56A,0.0147
2,A52G C54G G67C G81A C95G,-3.86
3,C10G G94A,-3.44
4,A28C G46C G84A C85U,≤ -4.2
5,A17C A89U,0.471
6,C79G C95U,-3.03
7,C85G G94U C118G,-0.928
8,A16C U31C G50A G86A,-3.16
9,U31A A89C,-0.512
10,C96A C125U G143A,-3.57
11,U61G C95U,-2.07
12,C32A G50A A137G,≤ -4.2
13,G84A U101A A115U A121G G124A,≤ -4.2
14,C8G C79A A91U A107C G124C U144C,≤ -4.2
15,C14A A29C C96G A150U,≤ -4.2
16,A22U A39U C57U G59A U101G U148C A150C,≤ -4.2
17,G67U C85G,≤ -4.2
18,G84A C105U,0.191
19,A26U G50A A64G U101G G141A,≤ -4.2
20,C8U A22C A26C G50C C85A C116U C118A,≤ -4.2
21,C14A A16C A28G A60G C79G A91G U109A,≤ -4.2
22,A28G C36U,≤ -4.2
23,A21U C69A G88U A97C,≤ -4.2
24,C27U U31C A52C U78C U101A C125G,≤ -4.2

row,Variant,polymerase ribozyme fitness (log ratio)
1,G86A,-0.877
2,C95U A147U,0.673
3,U45A C85A C87G C114A A137C,≤ -4.2
4,C18U U31C U56G A138U G140A,-4
5,G59U U102G,-3.26
6,C54A C118A,-1.5
7,A91C A120C,≤ -4.2
8,A12U A20U C54U A73G A91U C99U U146G,≤ -4.2
9,C54U G65A C85U A89G U146G,-4.13
10,G50C C75U C85G,≤ -4.2
11,A24C U61A C63G G81A G94A,≤ -4.2
12,C10A C54A,≤ -4.2
13,G58C U144C,0.128
14,A47G G50U G94U G141C,-2.22
15,U61G G74U G83A,≤ -4.2
16,G92U A138C,-3.95
17,G25C C57A C87U A97G,-3.23
18,A22C U61A G88A A107C A110C C123G G140A,≤ -4.2
19,A19G C57G G84U,-2.3
20,A41C A49C G50U C51A G92C A106G,≤ -4.2
21,G11A A21U C85U,-1.32
22,A40C G70A,-2.97
23,G46U U56A,-0.107
24,C57A A138C,-3.77

row,Variant,polymerase ribozyme fitness (log ratio)
1,G84A U145A,0.189
2,A52G G70C U78G C93G G141C,≤ -4.2
3,A41U A52G U55A C69A G86U,-3.96
4,A26U C36G U55A G58C C105U,≤ -4.2
5,A24U A52G,0.771
6,A22U U82A,0.472
7,G11A C54A,-2.47
8,A60U G84U U102G,-4.18
9,U33G C35A A66G C93U U104G C105U U134G,≤ -4.2
10,U53A U56A G152A,-4
11,G11U A22G C54U G65A C76U A98U C103G U144G,≤ -4.2
12,A137U U148G,≤ -4.2
13,A39U A64G G86A A89G U135A,≤ -4.2
14,A19G C72G A89G,≤ -4.2
15,A12C U15G U56A C75U G86U C129A G133U,≤ -4.2
16,A23U G86U A89G C105G C129U,≤ -4.2
17,A23G G59U C95U,-3.41
18,A19G C54G C96G C149U,-3.72
19,C69G C72U U134A,≤ -4.2
20,U4G C5G A29G A52U G67U C79G G83A,≤ -4.2
21,U55A A138U,-3.9
22,A115G C116A U127G,≤ -4.2
23,A19U A20G A66G G80A C87A A107G A110C,≤ -4.2
24,C54G G74C G81A G88C,≤ -4.2

row,Variant,polymerase ribozyme fitness (log ratio)
1,U61A C85U A97C A120G,-3.26
2,G46U C85U A91C,≤ -4.2
3,C27G C51U,-3.97
4,C8A C14U A37G C54U C85U,≤ -4.2
5,A41C U148G,≤ -4.2
6,C51U G70U G88A G94U A106C,≤ -4.2
7,C54U U148A,-3.74
8,C85U C95U G133A,-4
9,C108U A147C,-3.44
10,C57U G70U C79A C93G C105G G143C,≤ -4.2
11,G81C C95A U134A U144C,-2.86
12,U9A C14A A23U A30C C36A C95U A110U,≤ -4.2
13,A30C C54U C96G G141A,≤ -4.2
14,A28C A52U C87U,≤ -4.2
15,U53A G80C A106C C125U,≤ -4.2
16,A91C C125A U135C,≤ -4.2
17,C69A G83A A121C,-1.84
18,A39C A41C A115G G124A,-3.47
19,C54U G59U G74A,-3.62
20,A29U U44A A49C C57U G88U,≤ -4.2
21,A16G A20C C35A U44A A47G C129U G140C,≤ -4.2
22,U45A C54A C95A A113G C129A,≤ -4.2
23,G34A U56A G92C,-1.65
24,C57A C85G,-1.75

row,Variant,polymerase ribozyme fitness (log ratio)
1,G11A C14G A66U C87A A106U G143C,≤ -4.2
2,A19C A41C G48C C87U A91C A115C A122U G136C U145A,≤ -4.2
3,A64U C96U C105G G141A A147G,≤ -4.2
4,C38A U55A C85A,-2.66
5,G48U A49C C69G G86A C93U U139G A150G,≤ -4.2
6,A16U A17C G50A U56A C87U G88A G117U,≤ -4.2
7,C8U G88U G92A,≤ -4.2
8,A98G A121G,-1.63
9,U56A C79U G83A,≤ -4.2
10,C54U C95A G126U U148A,≤ -4.2
11,C10U G65A G92A,≤ -4.2
12,C38U C76U G81C,-0.0752
13,U33A G58A C96A G152U,-3.79
14,U45G U61G C87G G88C C118G C129G G141A,≤ -4.2
15,U7G A30G C32A A39U A60G C96U G126U G140U,-3.86
16,U15G A26G A52U U53A G65A G80U C87G C96G A97G C108G,≤ -4.2
17,G50C U56C C87G A89C G100C A120G C125U,≤ -4.2
18,C32A G84U A97G C131U U139C,≤ -4.2
19,U7A A16U A20G G48A C57A G58U A64G C87A G92U G126A C129A A137C,≤ -4.2
20,A113C C118A,≤ -4.2
21,C10U C35A A40U U44A C51U G59U G68C C87A G143U,≤ -4.2
22,C18A U33A U56A G88A C114U U130A,≤ -4.2
23,C85A G126C U148A,-4.13
24,A20U C32U U56A A142U,-3.91

row,Variant,polymerase ribozyme fitness (log ratio)
1,A40G G117A,-3.18
2,A41U G46U A52U,-4.03
3,A12G A23C G25A A41G G94C C96U C116U G143C,≤ -4.2
4,U15A A20G U44A A121C G136U,≤ -4.2
5,A20G C27U C35U A49U C76U C125U,≤ -4.2
6,C38A U53A A60U C93G C131A G141C,-3.94
7,C79U C93U C95U,-4.08
8,C57U C95G U127C U139G A142G,-4.04
9,A60U G84U C95G,0.318
10,U77G C85U C108A A113G,≤ -4.2
11,A3U A37U C96U C118G,-3.38
12,A49G A91G,-4.05
13,G34U G94A,-2.37
14,U6A C85U G140C,-3.99
15,A17U A20U A37U G48U C96A U101C,≤ -4.2
16,A20U G94A,-1.88
17,G71C G83U G141A A147C C149A,≤ -4.2
18,A17C A19C A73G C96U C123U C125G,-3.23
19,A60G G117C G124U,0.122
20,C85G C125A U130C,-1.52
21,C69U G94A A122G U135A U146G,-2.95
22,A52U G86U C105U,-1.83
23,A20G G74A C87U U101C A107U,≤ -4.2
